In patent publication US6962972B2, “Derivatization of proteins” (Lipoxen Technologies Limited, priority 2000, dated 2005):

Key:
[1] = Catalase determination (enzyme activity: time for hydrogen peroxide absorbance to drop from 0.450 to 0.400); format: biochemical; details: for Time for Δ Ab: absorbance drop 0.45 to 0.40
Excerpt: (§1) Catalase is a tetrameric haemprotein that catalyses the degradation of hydrogen peroxide to oxygen and water. The reaction can be used to determine enzyme activity. The reaction is a first order reaction, whereby the amount of peroxide substrate decomposed is directly proportional to the concentration of both substrate and enzyme. Provided the concentration of substrate is constant between experiments, any difference in decomposition rate will therefore be a function of enzyme activity present. In the present examples, the drop in absorbance hydrogen peroxide at […] from 0.450 to 0.400, corresponding to the decomposition of 3.45 μ moles of hydrogen peroxide in a cuvette having a reaction volume of 3 ml, is determined.
The derivatised catalase compounds were also tested against native catalase for their enzyme activity. The results for catalase alone in FIG. 3 show the effect of subjecting catalase to the reaction conditions but without the addition of activated colominic acid. […] The […] is greater when the polysialylation takes place in the presence of SDS.
The derivatised catalase products were assessed for their catalase activity using the general test described above. The times taken for the enzymes to reduce the absorbance from 0.45 to 0.40 are shown in table 1 as compared to native catalase.

[2] = Hanes Woolf plot at different concentrations of hydrogen peroxide (Km); format: biochemical; details: substrate hydrogen peroxide, read-out: Km (substrate concentration at which the reaction rate is half of its maximal value)
Excerpt: as §1
Native catalase, catalase derivitised using 1×10^−3M SDS, for a reaction period of 48 hours, and catalase derivatised using the same reaction time but in the absence of SDS, were compared at different concentrations of hydrogen peroxide to form Hanes Woolf plot.

Time for Δ Ab ([1]; Concentration SDS 0 %) [min]	Time for Δ Ab ([1]; SDS 0.01 % in derivatisation, 48 hours) [min]	Time for Δ Ab ([1]; SDS 0.02 % in derivatisation, 48 hours) [min]	Time for Δ Ab ([1]; SDS 0.029 % (1×10^−3M) in derivatisation, 48 hours) [min]	Molecule	enzyme activity (FIG. 3) ([1]; after the derivatisation reaction conditions, up to 48 hours at 35 to 40° C.)	Km [2] [mM]
4				native catalase: tetrameric haemprotein enzyme from Sigma, used as model protein, underivatised (protein, UniProt P00432 2-527, looked up) Catalase: ADNRDPASDQMKHWKEQRAAQKPDVLTTGGGNPVGDKLNSLTVGPRGPLLVQDVVFTDEMAHFDRERIPERVVHAKGAGAFGYFEVTHDITRYSKAKVFEHIGKRTPIAVRFSTVAGESGSADTVRDPRGFAVKFYTEDGNWDLVGNNTPIFFIRDALLFPSFIHSQKRNPQTHLKDPDMVWDFWSLRPESLHQVSFLFSDRGIPDGHRHMNGYGSHTFKLVNANGEAVYCKFHYKTDQGIKNLSVEDAARLAHEDPDYGLRDLFNAIATGNYPSWTLYIQVMTFSEAEIFPFNPFDLTKVWPHGDYPLIPVGKLVLNRNPVNYFAEVEQLAFDPSNMPPGIEPSPDKMLQGRLFAYPDTHRHRLGPNYLQIPVNCPYRARVANYQRDGPMCMMDNQGGAPNYYPNSFSAPEHQPSALEHRTHFSGDVQRFNSANDDNVTQVRTFYLKVLNEEQRKRLCENIAGHLKDAQLFIQKKAVKNFSDVHPEYGSRIQALLDKYNEEKPKNAVHTYVQHGSHLSAREKANL	catalase activity is lost under those conditions	84
	13	21	44	derivatised catalase: catalase derivatised with activated colominic acid for 48 hours in the presence of SDS at 0.01, 0.02 or 0.029 % by weight (conjugate, UniProt P00432 2-527, looked up, colominic acid conjugate) Catalase: ADNRDPASDQMKHWKEQRAAQKPDVLTTGGGNPVGDKLNSLTVGPRGPLLVQDVVFTDEMAHFDRERIPERVVHAKGAGAFGYFEVTHDITRYSKAKVFEHIGKRTPIAVRFSTVAGESGSADTVRDPRGFAVKFYTEDGNWDLVGNNTPIFFIRDALLFPSFIHSQKRNPQTHLKDPDMVWDFWSLRPESLHQVSFLFSDRGIPDGHRHMNGYGSHTFKLVNANGEAVYCKFHYKTDQGIKNLSVEDAARLAHEDPDYGLRDLFNAIATGNYPSWTLYIQVMTFSEAEIFPFNPFDLTKVWPHGDYPLIPVGKLVLNRNPVNYFAEVEQLAFDPSNMPPGIEPSPDKMLQGRLFAYPDTHRHRLGPNYLQIPVNCPYRARVANYQRDGPMCMMDNQGGAPNYYPNSFSAPEHQPSALEHRTHFSGDVQRFNSANDDNVTQVRTFYLKVLNEEQRKRLCENIAGHLKDAQLFIQKKAVKNFSDVHPEYGSRIQALLDKYNEEKPKNAVHTYVQHGSHLSAREKANL		
